# Data reported in patent US7304034.
# How the values were obtained:
# [1] = molecular target: cell surface binding sites for HMGB1 on RAW 264.7 cells; assay: cell-based or functional assay
# [2] = molecular target: RAGE on RAW 264.7 cells (mouse (murine RAW 264.7 cells)) (UniProt Q62151); assay: cell-based or functional assay
# [3] = molecular target: cell surface binding sites for HMGB1 on RAW 264.7 cells; assay: 125I-HMGB1 cell surface binding to RAW 264.7 cells, 2 hours at 4 C, no competitor
# Chain of RAGE on RAW 264.7 cells (mouse (murine RAW 264.7 cells)) (Q62151 23-402): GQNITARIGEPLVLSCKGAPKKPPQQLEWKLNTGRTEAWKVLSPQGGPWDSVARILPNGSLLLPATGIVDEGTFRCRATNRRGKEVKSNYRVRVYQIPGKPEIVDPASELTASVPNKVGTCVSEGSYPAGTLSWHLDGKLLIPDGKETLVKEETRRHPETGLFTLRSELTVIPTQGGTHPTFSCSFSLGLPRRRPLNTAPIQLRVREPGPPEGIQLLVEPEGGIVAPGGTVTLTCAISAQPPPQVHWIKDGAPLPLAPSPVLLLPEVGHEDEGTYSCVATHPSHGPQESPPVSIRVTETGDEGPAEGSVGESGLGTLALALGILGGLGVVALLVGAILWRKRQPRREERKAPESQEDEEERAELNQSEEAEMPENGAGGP
"inhibition of HMGB1 (1 µg/ml) induced TNF release from RAW 264.7 cells, apparent EC50 [1]",maximum inhibition of HMG-1 signaling (TNF release from RAW 264.7 cells) by anti-RAGE antibody [2],total counts obtained in the absence of unlabeled HMGB1 proteins (CPM/well) [3],Substance
7.5 µg/mL,,,HMGB1 A box (Amino terminus + A Box mutant of human HMGB1) (from UniProt A9RA84 1-85)
,40%,2.38e+06 CPM/well,Recombinant full length human HMGB1 (wild type HMGB1) (from UniProt A9RA84 1-215) (ligand)
